Results: US10941182 (Amgen, dated 2021)
Starred links: 1 amine or outer side, 2 acyl side, 3 side chain; linkers in the order of their positions; H or OH if unused. Non-standard residues stand in square brackets, D forms with d. Primed or numbered codes have the meaning given here. *: point of attachment. AC4Abu = α-carboxy-4-aminobutyric acid, O=C(C(CCN[*:1])C(=O)[*:3])[*:2]; dBip = N[C@H](Cc1ccc(-c2ccccc2)cc1)C(=O)O; Oic = O=C(O)[C@@H]1C[C@@H]2CCCC[C@@H]2N1; Phe(4-Cl) = N[C@@H](Cc1ccc(Cl)cc1)C(=O)O; Phe(4-I) = N[C@@H](Cc1ccc(I)cc1)C(=O)O; γGlu = O=C(O)[C@H](CCC(=O)[*:2])N[*:1]; NMeR = CN[C@@H](CCCNC(=N)N)C(=O)O; hArg = N=C(N)NCCCC[C@H](N)C(=O)O; Cha = N[C@@H](CC1CCCCC1)C(=O)O; NMeL = CN[C@@H](CC(C)C)C(=O)O; Nle = CCCC[C@H](N)C(=O)O; Pip′ = not defined here; Hexanoyl = CCCCCC(=O)*; AEEA = NCCOCCOCC(=O)O; Aib = CC(C)(N)C(=O)O

T1: rat APJ receptor (rat, UniProt Q9JHG3 1-377)
T1 sequence (looked up): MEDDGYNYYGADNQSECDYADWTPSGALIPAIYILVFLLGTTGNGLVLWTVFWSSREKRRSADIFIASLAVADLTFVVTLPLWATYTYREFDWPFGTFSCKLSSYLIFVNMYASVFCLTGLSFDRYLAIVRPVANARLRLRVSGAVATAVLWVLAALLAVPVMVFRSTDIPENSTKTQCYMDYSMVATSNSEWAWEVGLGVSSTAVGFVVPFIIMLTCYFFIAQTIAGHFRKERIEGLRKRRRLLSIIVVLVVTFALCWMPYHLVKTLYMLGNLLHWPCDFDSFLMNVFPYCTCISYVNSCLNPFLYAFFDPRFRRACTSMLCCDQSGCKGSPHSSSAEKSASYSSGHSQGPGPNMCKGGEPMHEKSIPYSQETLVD

T2: human APJ receptor (human, UniProt P35414 1-380)
T2 sequence (looked up): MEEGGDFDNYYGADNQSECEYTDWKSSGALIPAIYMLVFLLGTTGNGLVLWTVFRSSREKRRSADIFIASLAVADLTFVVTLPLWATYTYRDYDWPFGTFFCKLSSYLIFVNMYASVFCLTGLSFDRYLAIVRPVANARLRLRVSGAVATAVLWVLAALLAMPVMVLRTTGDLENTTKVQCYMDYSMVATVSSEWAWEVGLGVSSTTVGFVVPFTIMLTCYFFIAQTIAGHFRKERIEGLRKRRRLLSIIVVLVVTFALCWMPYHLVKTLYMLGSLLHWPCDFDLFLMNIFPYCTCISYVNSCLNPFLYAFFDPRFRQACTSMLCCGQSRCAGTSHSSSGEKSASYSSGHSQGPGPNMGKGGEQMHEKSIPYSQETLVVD


Tests used:
[1] = biological target: T1, rat APJ receptor; assay: cell-based or functional assay
[2] = biological target: T2, human APJ receptor; assay: cell-based or functional assay

| Binder | EC50 Rat APJ Receptor [1] | EC50 Human APJ Receptor [2] |
| --- | --- | --- |
| Hexanoyl-[γGlu][AEEA][AEEA][AEEA][hArg]Q[hArg]P[NMeR][Cha]SHKG[Oic][Nle]P[Phe(4-Cl)]-OH (SMILES CCCCCC(=O)N[C@@H](CCC(=O)NCCOCCOCC(=O)NCCOCCOCC(=O)NCCOCCOCC(=O)N[C@@H](CCCCNC(=N)N)C(=O)N[C@@H](CCC(N)=O)C(=O)N[C@@H](CCCCNC(=N)N)C(=O)N1CCC[C@H]1C(=O)N(C)[C@@H](CCCNC(=N)N)C(=O)N[C@@H](CC1CCCCC1)C(=O)N[C@@H](CO)C(=O)N[C@@H](Cc1c[nH]cn1)C(=O)N[C@@H](CCCCN)C(=O)NCC(=O)N1[C@H](C(=O)N[C@@H](CCCC)C(=O)N2CCC[C@H]2C(=O)N[C@@H](Cc2ccc(Cl)cc2)C(=O)O)C[C@@H]2CCCC[C@@H]21)C(=O)O) [SEQ ID NO: 506] | 13.2 nM | 3.49 nM |
| Hexanoyl-[γGlu][AEEA][AEEA][hArg][dR]Q[hArg]P[dR][NMeL]SHKG[Oic][Phe(4-I)]P[dBip]-OH (SMILES CCCCCC(=O)N[C@@H](CCC(=O)NCCOCCOCC(=O)NCCOCCOCC(=O)N[C@@H](CCCCNC(=N)N)C(=O)N[C@H](CCCNC(=N)N)C(=O)N[C@@H](CCC(N)=O)C(=O)N[C@@H](CCCCNC(=N)N)C(=O)N1CCC[C@H]1C(=O)N[C@H](CCCNC(=N)N)C(=O)N(C)[C@@H](CC(C)C)C(=O)N[C@@H](CO)C(=O)N[C@@H](Cc1c[nH]cn1)C(=O)N[C@@H](CCCCN)C(=O)NCC(=O)N1[C@H](C(=O)N[C@@H](Cc2ccc(I)cc2)C(=O)N2CCC[C@H]2C(=O)N[C@H](Cc2ccc(-c3ccccc3)cc2)C(=O)O)C[C@@H]2CCCC[C@@H]21)C(=O)O) [SEQ ID NO: 286] | 3.07 nM | 1.62 nM |
| XXXQRPRLSHKGPXPF ({HDA}[AC4Abu][Aeea][Aeea]QRP[NMeArg]LSHKGP[Nle]P[4-Cl-F]{COOH}) [SEQ ID NO: 496] | 0.481 nM | 0.0874 nM |

Other lines, results leading:

| EC50 Rat APJ Receptor [1] | EC50 Human APJ Receptor [2] | Binder |
| --- | --- | --- |
| 12.7 nM | 4.3 nM | Hexanoyl-[AC4Abu][AEEA][AEEA][hArg][dR]Q[hArg]P[dR][NMeL]SHKG[Pip′][Phe(4-I)]P[dBip]-OH [SEQ ID NO: 563] |
| 0.274 nM | 0.0553 nM | XXXQRPRLSHKGPXPF ({hexanoyl}[AC4Abu][Aeea][Aeea]QR[aMePro][hArg][aMeLeu]SHKGP[Nle]P[4-Cl-F]{COOH}) [SEQ ID NO: 560] |
| 5.94 nM | 1.21 nM | XXXQRPRLSHKGPXPF ({hexanoyl}[AC4Abu][Aeea][Aeea]Q[NMehArg]P[NMeArg][aMeLeu]SHKGP[Nle]P[4-Cl-F]{COOH}) [SEQ ID NO: 561] |
| 16.3 nM | 3.85 nM | Hexanoyl-[AC4Abu][AEEA][AEEA]QRP[NMeR][Cha]SHKG[Oic][Nle][Aib][Phe(4-Cl)]-OH (SMILES CCCCCC(=O)NCCC(C(=O)O)C(=O)NCCOCCOCC(=O)NCCOCCOCC(=O)N[C@@H](CCC(N)=O)C(=O)N[C@@H](CCCNC(=N)N)C(=O)N1CCC[C@H]1C(=O)N(C)[C@@H](CCCNC(=N)N)C(=O)N[C@@H](CC1CCCCC1)C(=O)N[C@@H](CO)C(=O)N[C@@H](Cc1c[nH]cn1)C(=O)N[C@@H](CCCCN)C(=O)NCC(=O)N1[C@H](C(=O)N[C@@H](CCCC)C(=O)NC(C)(C)C(=O)N[C@@H](Cc2ccc(Cl)cc2)C(=O)O)C[C@@H]2CCCC[C@@H]21) [SEQ ID NO: 562] |
